These are literature values, as cited in PMC7150914.

The target of series [1] is α-1B glycoprotein (Homo sapiens) (UniProt P04217).
Series [2] addresses PSP94 (β-microseminoprotein) (Homo sapiens) (UniProt P08118).
Series [3] concerns the target CNGA2 (Rattus norvegicus) (UniProt Q00195).
The target in a further series is CNGA1 (Bos taurus) (UniProt Q00194).
UniProt Q00194, sequence (Q00194 whole entry): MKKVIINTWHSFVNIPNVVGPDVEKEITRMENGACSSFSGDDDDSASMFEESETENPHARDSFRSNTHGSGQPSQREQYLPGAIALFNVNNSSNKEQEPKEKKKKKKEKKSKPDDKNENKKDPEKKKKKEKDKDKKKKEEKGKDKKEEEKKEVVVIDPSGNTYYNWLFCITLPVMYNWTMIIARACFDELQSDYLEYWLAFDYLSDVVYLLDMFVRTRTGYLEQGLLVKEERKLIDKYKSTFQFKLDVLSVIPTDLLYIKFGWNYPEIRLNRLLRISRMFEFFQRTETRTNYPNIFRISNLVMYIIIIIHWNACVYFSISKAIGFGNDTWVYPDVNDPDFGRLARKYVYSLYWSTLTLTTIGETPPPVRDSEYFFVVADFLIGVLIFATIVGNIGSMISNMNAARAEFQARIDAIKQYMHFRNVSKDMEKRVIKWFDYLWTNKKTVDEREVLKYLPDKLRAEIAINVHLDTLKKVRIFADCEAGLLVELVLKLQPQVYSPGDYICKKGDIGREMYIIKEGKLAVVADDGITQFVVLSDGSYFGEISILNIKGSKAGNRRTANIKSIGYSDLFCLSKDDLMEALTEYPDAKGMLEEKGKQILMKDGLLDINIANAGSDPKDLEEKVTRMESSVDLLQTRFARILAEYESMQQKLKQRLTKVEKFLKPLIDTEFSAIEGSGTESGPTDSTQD

UniProt P04217, sequence (P04217 22-495): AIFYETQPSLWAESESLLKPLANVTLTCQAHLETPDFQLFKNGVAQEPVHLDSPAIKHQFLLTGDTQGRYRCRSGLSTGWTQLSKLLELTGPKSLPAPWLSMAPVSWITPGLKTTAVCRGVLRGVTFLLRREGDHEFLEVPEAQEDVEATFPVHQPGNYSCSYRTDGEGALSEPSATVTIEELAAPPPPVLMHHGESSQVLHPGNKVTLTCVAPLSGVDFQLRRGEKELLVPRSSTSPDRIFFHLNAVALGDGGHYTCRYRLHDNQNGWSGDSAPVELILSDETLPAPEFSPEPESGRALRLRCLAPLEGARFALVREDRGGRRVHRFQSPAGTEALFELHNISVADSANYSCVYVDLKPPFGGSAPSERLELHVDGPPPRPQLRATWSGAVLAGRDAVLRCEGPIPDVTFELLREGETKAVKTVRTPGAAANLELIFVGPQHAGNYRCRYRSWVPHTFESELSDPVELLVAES
UniProt Q00195, sequence (Q00195 whole entry): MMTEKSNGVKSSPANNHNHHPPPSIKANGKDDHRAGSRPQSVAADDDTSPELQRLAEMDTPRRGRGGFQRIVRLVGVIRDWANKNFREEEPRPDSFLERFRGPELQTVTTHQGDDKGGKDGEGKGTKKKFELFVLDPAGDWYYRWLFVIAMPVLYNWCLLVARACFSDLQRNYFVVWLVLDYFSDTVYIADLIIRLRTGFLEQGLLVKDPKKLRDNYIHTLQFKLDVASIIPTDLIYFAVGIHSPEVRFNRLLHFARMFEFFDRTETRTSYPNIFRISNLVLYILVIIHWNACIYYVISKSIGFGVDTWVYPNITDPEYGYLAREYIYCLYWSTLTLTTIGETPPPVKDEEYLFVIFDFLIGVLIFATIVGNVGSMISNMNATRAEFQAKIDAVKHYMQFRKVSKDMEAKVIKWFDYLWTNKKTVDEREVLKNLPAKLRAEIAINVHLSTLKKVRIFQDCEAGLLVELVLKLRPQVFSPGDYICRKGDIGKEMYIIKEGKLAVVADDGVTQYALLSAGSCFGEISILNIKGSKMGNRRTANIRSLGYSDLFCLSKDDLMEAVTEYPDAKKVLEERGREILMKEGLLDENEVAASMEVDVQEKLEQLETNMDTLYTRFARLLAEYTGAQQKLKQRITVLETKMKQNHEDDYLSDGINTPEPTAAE
UniProt P08118, sequence (P08118 21-114): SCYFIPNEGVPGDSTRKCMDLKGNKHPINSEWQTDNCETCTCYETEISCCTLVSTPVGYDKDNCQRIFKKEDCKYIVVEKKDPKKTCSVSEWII

In the case of CRISP-3 (from UniProt P54108), the Kd in series [1] was 2.8 nM; in series [2] it was 0.0628 nM.
On to “Pseudechetoxin (PsTx) (from UniProt Q8AVA4)”, for which the figures for the Ki (in series [3]; with CNGA1 (Bos taurus)) were 15 nM and 70 nM, respectively.
